Data published in a protein production outcome set (Wang et al. 2014).

Experiment: label from the status in PepcDB records

| Sequence | protein production |
| --- | --- |
| MSDWPPKPQNEVQNSNNKTGQEWQILEKAVLASVEEQRRTRRWGIFFKFLTFLYLLFVFVLLGRGCTTSESSGGTSSSTAHLAVVNIIGTIDSSNQSVNSEDTNKALERAFEAKNSKAVALNINSPGGSPVQSDEIWQEIRYLKKQHPDKKVYAVIGDMGASGAYYIASAADEIIVNPSSLVGSIGVIMPNYGITGLAQKLGIEDRTLTSGSNKDILSMTKPVNPAQREHIQSVLDNVHAHFINAVKEGRGTRLKSNDPAIFSGLFWTGEQAIQLGVADRTGNLDTLMRELKVENKVNYTIERSPFESILGKMGSELGQGISQSVSQQLKTEQQAKLQ | failed |
| MSDWQMAEAWTLEEAIANIQQTEDTGKRYYAAWWFGKFRVQDERAVNALLAALKDETDRSPDGGYPLRRNAAKALGKLGNLAAVQPLIESLESPDYYVRESAAQSLEMLGDRQAIPALQALLAGGVAAAVKAEGKPHLVQPYEAVIEALGTIGATAAIAEIEPFLDHEFAKIRYAALRALYQLTQEAHYAEQLMEALNGNQLQLRRSALLDLGAIGYVPAGQAIAKAYAENSLKLISLKGILESHLQRTAETLDADGLQLLELMDSLL | failed |
| MSEDKDMKNRNAMTIKRFVDVEEDGEHGGSGEFAELFQESIKQHRVGEVVTGKVVHISNEFVLVDIGYKSEGCIAIDEFLDEDGNLTVKVGDEVKALFERKENQKGYAVLSRRKAERLAVWDVIDEAGGEGGIIEGKITGKVKGGLTVDIGVQAFLPASQVDLRPGGNLDKYIGTTDRFKVLKLNKKRGNIVLSRRVLMEEERESSRKETLATLAEGQVREGVVKNITDYGAFVDIGGVDGLLHVTDMSWGRLGHPSEILKPGDKLNVKVLKYDQEKGKISLGLKQVTPDPWVSVEQKYNQGDRVKGKVVSLTDYGAFIALEDGVEGLVHVSEMSWTRRLRHPSEILTVGDEVETVVLGVDMGNRRISLGLKQVQVNPWTQLEEKYPVGTKLEGQIKSITDFGVFIGIEEGIDGLVHVSDISWTKRIKHPGEVFTKGQTVQAVVLNIDPENERLSLGIKQLLLDPWSEIPVKYRPGTRVHGKVTSVTDFGVFLEIEEGIEGLIHVSELSREKVASPKEFTNVGDELDAVVLSVDESEKKIALSIKSLQMAAEKAEIESYMQAQGEATSNLGELLKVGFRKNGDGNDLEHHHHHH | failed |
| MSEENKIGTYQFVAEPFHVDFNGRLTMGVLGNHLLNCAGFHASDRGFGIATLNEDNYTWVLSRLAIELDEMPYQYEKFSVQTWVENVYRLFTDRNFAVIDKDGKKIGYARSVWAMINLNTRKPADLLALHGGSIVDYICDEPCPIEKPSRIKVTSNQPVATLTAKYSDIDINGHVNSIRYIEHILDLFPIELYQTKRIRRFEMAYVAESYFGDELSFFCDEVSENEFHVEVKKNGSEVVCRSKVIFE | not failed |
| MSEENRAVVSRMTEEDVRQLIKRKDDIEEQIKAYYDMLESQAGVGMDGPLVDVEGFPRADVDLYKVRTARHSISCLQNDHKAIMVEIEEALHKLHATARVTHEQDDTQMESSGQTVETPPPFALVDAVTHGSPAAQAGLHVGDQIMEFGSVNTQNFRNLRDIASVVQHSEGKSLRVGVFRNGQEVHLNLTPQQWSGRGLLGCNIVPLHR | failed |
| MSEIEELVCIEASVTRKSTSNTVEIRESRRNKVTLGSSDSPAFPTPHLFLKNIVSFDEQSMYNLLYPRLQDPNLCSILSFKIAFEAKRVPGPLYISYDVTLTPQIFEEPDMETCGLCLLEEQHLFDMPNCAHVFHGDCIDKWLSTSNNCPLCGVEIMDDDE | failed |
| MSEIILVTGAAGQLGQRVIHHLIETYKVAPGNIVAATRSPEKLSELEKKGVVTRKADFDDAAGLEKAFAGVDRLLIISTDALDTPGKRLAQHKGAVAAAVKSGVKHIAYTSMPGPDNSLVTFAPDHLGSENAIKASGIAHTIIRDAWYHDNYLHGMPHNLQGGKWYSATGDGKISTISRDDCALAIAAALASGTSESATYTVTGTQSLNSRQIAAIVSDVAGKPLEVIDVTDEQLGQGMRGAGLPGFVADMLVSADANTRAGKFDIVTEDFTKLTGKQPQPLKDFFVEHKATLTA | failed |
| MSEILRQPSVLLFLTLAVYALAIIVRTRTGNIFCNPVLVSTIVLIAYLKILGIDYAVYHNAAQFIDFRLKPAVVVLAVPLYQNRRKIFNQWLPVIVSQLAGSVTGIVTGMYFAKWLGAEREVVLPLASKSVTNPIAIEITRSIGGIPAITAATVIIAGLVGQIAGYKMLKNTVVMPSSVGMSLGTASHAMGIAASLERSRRMAAYAGMGLTFNGVLTALIAPLLIPVLGF | failed |
| MSEKDFVQVAKLGKTVGLKGYVKLHNLSDFSSQFKKDATFFIKNTKEMLKIKHYNANNSTVLFENYEDIEKAKELTNLILFQSIEKSRQTCKLKKDEFFYFDILECEVFEEDKRLGKVVDILETGASYLFEIQSDEKWVEKKYPKIFFIPYLDKFVKNIDIEKRQIFCTQDAFLILENSLEHHHHHH | not failed |
| MSELILVRHGQATPFEKATDRLSALGEQQARAVGAALTAQGVRPTHVLHGSLVRQRRTAELAGEGQTGNEPGWPAPTLDPRLSEFDGDGLVTTLAPLLAQQDAEFGTLATTFREHRDSPERNRHFQRMLEALAAAWQAGTVTHPEVEGWADFRARVRAGLGDVLRLPAGTTAVLFTSGGVIGLAVALALDAPDASALKLNWRVKNGSLTRFTFGGGRLSLDSFNEEGHLTPELRSWR | failed |
| MSELPPREQPPRDQAISVAAISPERPDNHENDWTRRLVLFLRVMAVLSVAKGLYHWAQITGFVGGEDDAFEVQTMAWQTATIYFAVIELVAAVGLWLATPWGAVVWLTTVVSMAVIELMFPAIYGGSLLVVLGEALLLAAYLALAWMAARERPP | failed |
| MSELRILRAVDYPRMPWKNGAGSTEEIARDGGDGLDGFGWRLSIADVGESGGFSGFAGYQRIISVLEGGGMRLRVDGAESAPLRARQAFAFSGDSEVHCTLLDGAIRDFNLIYAPRRHRARLQWLRVEGELDWHGTASTLLLFAQQDGVAISLQGQPRGQLAAHDCLCAEGLQGLQHWRLTAHEPAWVCAVELDSL | not failed |
| MSELVINNNIVNDLLIKQFTNYVFMMIVTDIKGNIIYANKKYCQFNHINFESIKNKRYNLFYLVDENQDVFSNISDNKEVIRLEAKNPNKNKQEVWEDINIVPIFDKNNLISHYAFLSLDITD | failed |
| MSEPKKHKDAAVDDRAVQPSRRNFLKFGASGIAAATLSTWIPSDGMLQAAPVAPVLPVVEDRDAPAAGEHRIQLKVNGQVHTLNVPANAVLLDVLRDRLQLTGTKKGCDHGQCGACTLLVNGVAINSCLSIAVQHQGDSITTIEGLAENGKLHPVQEAFWEHDAYQCGYCTSGQIMSAVAILKDPNLGSDDASVREAMSGNICRCGAYKNILSAVQSARSKMGAV | failed |
| MSEQNWTDTGRFDNKAAEWDANAIRAALADAVARAIIAHMPVGKPANALEFGCGTGLVTTRIAPHCLQLTAVDSSREMLRMLGEKIAASAIANVTPLHLDFSRPEEAAGLDRDYDFVYSSMTLHHIPDTASFLRELIGHMSPGGALAIADLDAEDGLFHNDATEKVHHGFDRTELQALLESAGFAGVSFMTAHIIEKKNREGNLKNYPVFLVTAVKPKA | failed |
| MSESAKVWLVTGASSGFGRAIAEAAVAAGDTVIGTARRTEALDDLVAAYPDRAEAISLDVTDGERIDVVAADVLARYGRVDVLVNNAGRTQVGAFEETTERELRDLFELHVFGPARLTRALLPQMRERGSGSVVNISSFGGQLSFAGFSAYSATKAALEQLSEGLADEVAPFGIKVLIVEPGAFRTNLFGKGAAYFSEENPAYAEKVGPTRQLVQGSDGSQPGDPAKAAAAIRLALDAEKTPLRLALGGDAVDFLTGHLDSVRAELTEWEKVSRGTDFDTE | not failed |
| MSESIVTKIISIVQERQNMDDGAPVKTRDIADAAGLSIYQVRLYLEQLHDVGVLEKVNAGKGVPGLWRLLLEHHHHHH | not failed |
